± gives the uncertainty stated by the source.
Assay: self-splicing fitness, log relative to wild type (ln ratio); higher = more splicing; Tetrahymena group I intron in knt gene, E. coli kanamycin selection, DiMSum; sequences stand for … in CUCUCU…GGAGGGAAAAGUUAUCAGGCAUGCACCUGGUAGCUAGUCUUUAAACCAAUAGAUUGCAUCGGUUUAAAAGGCAAGACCGUCAAAUUGCGGGAAAGGGGUCAACAGCCGUUCAGUACCAAGUCUCAGGGGAAACUUUGAGAUGGCCUUGCAAAGGGUAUGGUAAUAAGCUGACGGACAUGGUCCUAACCACGCAGCCAAGUCCUAAGUCAACAGAUCUUCUGUUGAUAUGGAUGCAGUUCACAGACUAAAUGUCGGUCGGGGAAGAUGUAUUCUUCUCAUAAGAUAUAGUCGGACCUCUCCUUAAUGGGAGCUAGCGGAUGAAGUGAUGCAACACUGGAGCCGCUGGGAACUAAUUUGUAUGCGAAAGUAUAUUGAUUAGUUUUGGAGUACUCGUGGUCG
Method in brief: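 DiMSum derived fitness as the error-weighted combination of fold changes across replicates, kanamycin versus no kanamycin, normalised to wild type. E. coli BL21(DE3) held the library, which randomised all eight P1ex-region intron nucleotides within the knt kanamycin-resistance gene on pET-22b(+). Six replicate transformations grew overnight at 37°C or 30°C on LB agar with or without 25 μg/mL kanamycin, also containing 100 μg/mL carbenicillin, 50 μM IPTG and 0.2% rhamnose, and pooled colonies were amplicon-sequenced on an Illumina HiSeq 2500.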

Sequence	self-splicing fitness (ln) (30 °C)	self-splicing fitness (ln) (37 °C)
AUAUAGCAAUAUUACGGGUC	-4.55 ± 0.46	-2.17 ± 0.25
AGGAAGCAAUAUUACGCUCU	-2.56 ± 0.22	-1.99 ± 0.29
UUCCAGCAAUAUUACGGAUC	-3.83 ± 0.35	-1.75 ± 0.16
UGCCAGCAAUAUUACGGUUA	-0.355 ± 0.059	0.213 ± 0.066
AUCCAGCAAUAUUACGGGCG	-0.327 ± 0.066	0.25 ± 0.089
CUUGAGCAAUAUUACGCGGA	-2.71 ± 0.33	-3.47 ± 0.31
CGUGAGCAAUAUUACGUAAU	-3.22 ± 0.26	-2.19 ± 0.25
AGAAAGCAAUAUUACGCUUC	-1.58 ± 0.27	-2.22 ± 0.39
CGUCAGCAAUAUUACGUACU	-0.663 ± 0.1	-0.361 ± 0.12
AGUGAGCAAUAUUACGGUAA		-1.43 ± 0.34
UGACAGCAAUAUUACGCUCG	-1.1 ± 0.11	-0.143 ± 0.14
AUCAAGCAAUAUUACGCCAU	-2.88 ± 0.19	-1.44 ± 0.13
GAAGAGCAAUAUUACGUUCA	-1.33 ± 0.13	-0.0689 ± 0.13
GCACAGCAAUAUUACGUUGA	-0.837 ± 0.071	-0.158 ± 0.072
UGUAAGCAAUAUUACGGGCU	-1.73 ± 0.17	-0.63 ± 0.16
UGACAGCAAUAUUACGCCAG	-1.56 ± 0.12	-0.793 ± 0.14
GCACAGCAAUAUUACGGUAU	-0.511 ± 0.038	0.102 ± 0.059
GCGGAGCAAUAUUACGUCUC		-2.54 ± 0.38
AUUUAGCAAUAUUACGGUGG	-3.55 ± 0.31	-3.1 ± 0.27
GAUUAGCAAUAUUACGCGAU	-3.61 ± 0.37	-1.27 ± 0.44
AUCCAGCAAUAUUACGUUUG	-2.58 ± 0.12	-2.93 ± 0.18
CAACAGCAAUAUUACGAUCG	-0.183 ± 0.052	0.463 ± 0.069
GGUGAGCAAUAUUACGUAAU	-1.71 ± 0.27	-0.991 ± 0.31
GUCCAGCAAUAUUACGGGUG	-0.386 ± 0.052	0.0761 ± 0.067
GCAAAGCAAUAUUACGAAAG	-2.86 ± 0.19	-1.94 ± 0.21

Sequence	self-splicing fitness (ln) (30 °C)	self-splicing fitness (ln) (37 °C)
GCCCAGCAAUAUUACGUCGA	-1.5 ± 0.082	-1.09 ± 0.086
AUUUAGCAAUAUUACGGAUC	-2.84 ± 0.22	-0.766 ± 0.19
CGAAAGCAAUAUUACGAUGG	-0.519 ± 0.07	0.406 ± 0.1
CAAGAGCAAUAUUACGGGAU	-2.97 ± 0.17	-2.59 ± 0.31
CUCAAGCAAUAUUACGCGGC	-3.21 ± 0.25	-3.15 ± 0.34
CUGCAGCAAUAUUACGCGUA	-1.22 ± 0.23	-1.53 ± 0.22
GGUUAGCAAUAUUACGCUCG	-0.367 ± 0.2	0.204 ± 0.28
GCCAAGCAAUAUUACGUAAU	-1.11 ± 0.062	-0.183 ± 0.074
UCUGAGCAAUAUUACGCCAU		-2.32 ± 0.31
CACGAGCAAUAUUACGGCAG	-1.03 ± 0.11	-0.837 ± 0.14
GCGCAGCAAUAUUACGAAGG	-1.79 ± 0.087	-0.733 ± 0.12
UGGAAGCAAUAUUACGUCGU	-2.12 ± 0.18	-2.19 ± 0.25
UAACAGCAAUAUUACGGGUA	-0.895 ± 0.061	0.0689 ± 0.074
GUAGAGCAAUAUUACGGGGC		-1.52 ± 0.36
UCAAAGCAAUAUUACGGGGU	-3.42 ± 0.17	-3.33 ± 0.26
CUCCAGCAAUAUUACGUAGC	-2.49 ± 0.2	-2.36 ± 0.25
CUGUAGCAAUAUUACGGGGU	-2.96 ± 0.34	-2.82 ± 0.36
UUAAAGCAAUAUUACGUUAC	-3.66 ± 0.19	-0.9 ± 0.2
CGAUAGCAAUAUUACGGCUU	-2.67 ± 0.17	-1.51 ± 0.19
CCAAAGCAAUAUUACGUGCA	-2.81 ± 0.18	-2.9 ± 0.23
UUCUAGCAAUAUUACGAAAG		-2.87 ± 0.32
GUCGAGCAAUAUUACGAUCC	-1.82 ± 0.17	-0.489 ± 0.22
AUACAGCAAUAUUACGGCAA	-0.488 ± 0.076	0.0743 ± 0.078
AUCCAGCAAUAUUACGAAGG	-3.07 ± 0.2	-2.8 ± 0.23

Reference: the supplement of paper PMC7877785
